Experimental data published in patent US20160160255A1, “Methods and Materials for Producing 6-Carbon Monomers” (INVISTA North America S.á.r.l., priority 2014, published 2016).

B1: SEQ ID NO 9: Pseudomonas syringae ω-transaminase, Genbank Accession No. AAY39893.1, N-terminal His-tagged (protein, listed as Pseudomonas syringae)
chain: MSANNPQTLEWQALSSEHHLAPFSDYKQLKEKGPRIITRAEGVYLWDSEGNKILDGMSGLWCVAIGYGREELADAASKQMRELPYYNLFFQTAHPPVLELAKAISDIAPEGMNHVFFTGSGSEGNDTMLRMVRHYWALKGQPNKKTIISRVNGYHGSTVAGASLGGMTYMHEQGDLPIPGVVHIPQPYWFGEGGDMTPDEFGIWAAEQLEKKILELGVENVGAFIAEPIQGAGGVIVPPDSYWPKIKEILSRYDILFAADEVICGFGRTSEWFGSDFYGLRPDMMTIAKGLTSGYVPMGGLIVRDEIVAVLNEGGDFNHGFTYSGHPVAAAVALENIRILREEKIVERVRSETAPYLQKRLRELSDHPLVGEVRGVGLLGAIELVKDKTTRERYTDKGAGMICRTFCFDNGLIMRAVGDTMIIAPPLVISFAQIDELVEKARTCLDLTLAVLQG
modifications: N-terminal His tag
B2: SEQ ID NO 6: Segniliparus rotundus carboxylate reductase, Genbank Accession No. ADG98140.1, N-terminal His-tagged (protein, listed as Segniliparus rotundus)
chain: MTQSHTQGPQASAAHSRLARRAAELLATDPQAAATLPDPEVVRQATRPGLRLAERVDAILSGYADRPALGQRSFQTVKDPITGRSSVELLPTFDTITYRELRERATAIASDLAHHPQAPAKPGDFLASIGFISVDYVAIDIAGVFAGLTAVPLQTGATLATLTAITAETAPTLFAASIEHLPTAVDAVLATPSVRRLLVFDYRAGSDEDREAVEAAKRKIADAGSSVLVDVLDEVIARGKSAPKAPLPPATDAGDDSLSLLIYTSGSTGTPKGAMYPERNVAHFWGGVWAAAFDEDAAPPVPAINITFLPLSHVASRLSLMPTLARGGLMHFVAKSDLSTLFEDLKLARPTNLFLVPRVVEMLYQHYQSELDRRGVQDGTREAEAVKDDLRTGLLGGRILTAGFGSAPLSAELAGFIESLLQIHLVDGYGSTEAGPVWRDGYLVKPPVTDYKLIDVPELGYFSTDSPHPRGELAIKTQTILPGYYKRPETTAEVFDEDGFYLTGDVVAQIGPEQFAYVDRRKNVLKLSQGEFVTLAKLEAAYSSSPLVRQLFVYGSSERSYLLAVIVPTPDALKKFGVGEAAKAALGESLQKIARDEGLQSYEVPRDFIIETDPFTVENGLLSDARKSLRPKLKEHYGERLEAMYKELADGQANELRDIRRGVQQRPTLETVRRAAAAMLGASAAEIKPDAHFTDLGGDSLSALTFSNFLHDLFEVDVPVGVIVSAANTLGSVAEHIDAQLAGGRARPTFATVHGKGSTTIKASDLTLDKFIDEQTLEAAKHLPKPADPPRTVLLTGANGWLGRFLALEWLERLAPAGGKLITIVRGKDAAQAKARLDAAYESGDPKLAGHYQDLAATTLEVLAGDFSEPRLGLDEATWNRLADEVDFISHPGALVNHVLPYNQLFGPNVAGVAEIIKLAITTRIKPVTYLSTVAVAAGVEPSALDEDGDIRTVSAERSVDEGYANGYGNSKWGGEVLLREAHDRTGLPVRVFRSDMILAHQKYTGQVNATDQFTRLVQSLLATGLAPKSFYELDAQGNRQRAHYDGIPVDFTAESITTLGGDGLEGYRSYNVFNPHRDGVGLDEFVDWLIEAGHPITRIDDYDQWLSRFETSLRGLPESKRQASVLPLLHAFARPGPAVDGSPFRNTVFRTDVQKAKIGAEHDIPHLGKALVLKYADDIKQLGLL
modifications: N-terminal His tag
B3: SEQ ID NO 8: Pseudomonas aeruginosa ω-transaminase, Genbank Accession No. AAG08191.1, N-terminal His-tagged (protein, listed as Pseudomonas aeruginosa)
chain: MNARLHATSPLGDADLVRADQAHYMHGYHVFDDHRVNGSLNIAAGDGAYIYDTAGNRYLDAVGGMWCTNIGLGREEMARTVAEQTRLLAYSNPFCDMANPRAIELCRKLAELAPGDLDHVFLTTGGSTAVDTAIRLMHYYQNCRGKRAKKHVITRINAYHGSTFLGMSLGGKSADRPAEFDFLDERIHHLACPYYYRAPEGLGEAEFLDGLVDEFERKILELGADRVGAFISEPVFGSGGVIVPPAGYHRRMWELCQRYDVLYISDEVVTSFGRLGHFFASQAVFGVQPDIILTAKGLTSGYQPLGACIFSRRIWEVIAEPDKGRCFSHGFTYSGHPVACAAALKNIEIIEREGLLAHADEVGRYFEERLQSLRDLPIVGDVRGMRFMACVEFVADKASKALFPESLNIGEWVHLRAQKRGLLVRPIVHLNVMSPPLILTREQVDTVVRVLRESIEETVEDLVRAGHR
modifications: N-terminal His tag
B4: SEQ ID NO 7: Chromobacterium violaceum ω-transaminase, Genbank Accession No. AAQ59697.1, N-terminal His-tagged (protein, listed as Chromobacterium violaceum)
chain: MQKQRTTSQWRELDAAHHLHPFTDTASLNQAGARVMTRGEGVYLWDSEGNKIIDGMAGLWCVNVGYGRKDFAEAARRQMEELPFYNTFFKTTHPAVVELSSLLAEVTPAGFDRVFYTNSGSESVDTMIRMVRRYWDVQGKPEKKTLIGRWNGYHGSTIGGASLGGMKYMHEQGDLPIPGMAHIEQPWWYKHGKDMTPDEFGVVAARWLEEKILEIGADKVAAFVGEPIQGAGGVIVPPATYWPEIERICRKYDVLLVADEVICGFGRTGEWFGHQHFGFQPDLFTAAKGLSSGYLPIGAVFVGKRVAEGLIAGGDFNHGFTYSGHPVCAAVAHANVAALRDEGIVQRVKDDIGPYMQKRWRETFSRFEHVDDVRGVGMVQAFTLVKNKAKRELFPDFGEIGTLCRDIFFRNNLIMRACGDHIVSAPPLVMTRAEVDEMLAVAERCLEEFEQTLKARGLA
modifications: N-terminal His tag
B5: SEQ ID NO 12: Vibrio fluvialis ω-transaminase, Genbank Accession No. AEA39183.1, N-terminal His-tagged (protein, listed as Vibrio fluvialis)
chain: MNKPQSWEARAETYSLYGFTDMPSLHQRGTVVVTHGEGPYIVDVNGRRYLDANSGLWNMVAGFDHKGLIDAAKAQYERFPGYHAFFGRMSDQTVMLSEKLVEVSPFDSGRVFYTNSGSEANDTMVKMLWFLHAAEGKPQKRKILTRWNAYHGVTAVSASMTGKPYNSVFGLPLPGFVHLTCPHYWRYGEEGETEEQFVARLARELEETIQREGADTIAGFFAEPVMGAGGVIPPAKGYFQAILPILRKYDIPVISDEVICGFGRTGNTWGCVTYDFTPDAIISSKNLTAGFFPMGAVILGPELSKRLETAIEAIEEFPHGFTASGHPVGCAIALKAIDVVMNEGLAENVRRLAPRFEERLKHIAERPNIGEYRGIGFMWALEAVKDKASKTPFDGNLSVSERIANTCTDLGLICRPLGQSVVLCPPFILTEAQMDEMFDKLEKALDKVFAEVA
modifications: N-terminal His tag

How the values were obtained:
Format in all cases: biochemical
[1] = ω-transaminase activity, adipate semialdehyde to 6-aminohexanoate (forward direction); conditions: cell free extract, 10 mM adipate semialdehyde, 10 mM L-alanine, pH 7.5, 25° C., 4 h, RP-HPLC
Description: (§1) A nucleotide sequence encoding a His-tag was added to the nucleic acid sequences from Chromobacterium violaceum, Pseudomonas aeruginosa, Pseudomonas syringae, Rhodobacter sphaeroides, and Vibrio fluvialis encoding the ω-transaminases of SEQ ID NOs: 7, 8, 9, 10 and 12, respectively (see FIG. 6) such that N-terminal HIS tagged ω-transaminases could be produced. Each of the resulting modified genes was cloned into a pET21a expression vector under control of the T7 promoter and each expression vector was transformed into a BL21[DE3] E. coli host. The resulting recombinant E. coli strains were cultivated at 37° C. in a 250 mL shake flask culture containing 50 mL LB media and antibiotic selection pressure, with shaking at 230 rpm. Each culture was induced overnight at 16° C. using 1 mM IPTG.
(§2) The pellet from each induced shake flask culture was harvested via centrifugation. Each pellet was resuspended and lysed via sonication. The cell debris was separated from the supernatant via centrifugation and the cell free extract was used immediately in enzyme activity assays.
Enzyme activity in the forward direction (i.e., adipate semialdehyde to 6-aminohexanoate) was confirmed for the transaminases of SEQ ID NO 7, SEQ ID NO 8, SEQ ID NO 9, SEQ ID NO 10 and SEQ ID NO 12. Enzyme activity assays were performed in a buffer composed of a final concentration of 50 mM HEPES buffer (pH=7.5), 10 mM adipate semialdehyde, 10 mM L-alanine and 100 μM pyridoxyl 5′ phosphate. Each enzyme activity assay reaction was initiated by adding a cell free extract of the ω-transaminase gene product or the empty vector control to the assay buffer containing the adipate semialdehyde and incubated at 25° C. for 4 h, with shaking at 250 rpm. The formation of pyruvate was quantified via RP-HPLC.

[2] = ω-transaminase activity, 6-aminohexanoate to adipate semialdehyde (reverse direction); conditions: cell free extract, 10 mM 6-aminohexanoate, 10 mM pyruvate, pH 7.5, 25° C., 24 h, RP-HPLC
Description: as §1, §2
Enzyme activity assays in the reverse direction (i.e., 6-aminohexanoate to adipate semialdehyde) were performed in a buffer composed of a final concentration of 50 mM HEPES buffer (pH=7.5), 10 mM 6-aminohexanoate, 10 mM pyruvate and 100 μM pyridoxyl 5′ phosphate. Each enzyme activity assay reaction was initiated by adding cell free extract of the ω-transaminase gene product or the empty vector control to the assay buffer containing the 6-aminohexanoate and incubated at 25° C. for 24 h, with shaking at 250 rpm. The formation of L-alanine from pyruvate was quantified via RP-HPLC.

[3] = carboxylate reductase activity, adipate semialdehyde to hexanedial; conditions: purified enzyme with sfp phosphopantetheine transferase, 2 mM adipate semialdehyde, pH 7.5, room temperature, 20 min
Description: The N-terminal His-tagged carboxylate reductase of SEQ ID NO 6 (see Example 2 and FIG. 6) was assayed using adipate semialdehyde as substrate. The enzyme activity assay was performed in triplicate in a buffer composed of a final concentration of 50 mM HEPES buffer (pH=7.5), 2 mM adipate semialdehyde, 10 mM MgCl2, 1 mM ATP and 1 mM NADPH. The enzyme activity assay reaction was initiated by adding purified carboxylate reductase and phosphopantetheine transferase or the empty vector control to the assay buffer containing the adipate semialdehyde and then incubated at room temperature for 20 min. The consumption of NADPH was monitored by absorbance at 340 nm.

Row | Molecule | acceptance of adipate semialdehyde as substrate (conversion of L-alanine to pyruvate vs empty vector control) [1] | acceptance of 6-aminohexanoate as substrate (conversion of pyruvate to L-alanine vs empty vector control) [2] | acceptance of adipate semialdehyde as substrate (NADPH consumption, absorbance at 340 nm, vs empty vector control) [3]
1 | SEQ ID NO 10: Rhodobacter sphaeroides ω-transaminase, Genbank Accession No. ABA81135.1, N-terminal His-tagged | accepted adipate semialdehyde as substrate | accepted 6-aminohexanote as substrate | 
2 | B1 | accepted adipate semialdehyde as substrate | accepted 6-aminohexanote as substrate | 
3 | B2 |  |  | accepted adipate semialdehyde as substrate
4 | B3 | accepted adipate semialdehyde as substrate |  | 
5 | B4 | accepted adipate semialdehyde as substrate | accepted 6-aminohexanote as substrate | 
6 | B5 | accepted adipate semialdehyde as substrate | accepted 6-aminohexanote as substrate | 
